Measurements reported in paper doi:10.1101/2023.03.13.532385.

What was measured:
[1] = target: composite αS/N-protein fibrils (fibril strain s1, from plateau p1) (human | SARS-CoV-2) (UniProt P37840); experiment: co-sedimentation
[2] = target: human alpha-synuclein wild-type (human) (UniProt P37840); experiment: co-sedimentation

human alpha-synuclein wild-type (from UniProt P37840 1-140) (natural protein)
αS aggregated into fibrils at p1 [1]: 8 µM | αS aggregated into fibrils at p2 [2]: 24 µM
